Laboratory results as given in patent US20180215829A1 (CRESCENDO BIOLOGICS, published 2018).

Columns and labels:
IL-17RD = biological target: T1, IL-17RD (UniProt Q8NFM7 17-299, limits assumed); experiment: specificity ELISA, antigen coated, anti-His-HRP detection
T1 sequence (looked up): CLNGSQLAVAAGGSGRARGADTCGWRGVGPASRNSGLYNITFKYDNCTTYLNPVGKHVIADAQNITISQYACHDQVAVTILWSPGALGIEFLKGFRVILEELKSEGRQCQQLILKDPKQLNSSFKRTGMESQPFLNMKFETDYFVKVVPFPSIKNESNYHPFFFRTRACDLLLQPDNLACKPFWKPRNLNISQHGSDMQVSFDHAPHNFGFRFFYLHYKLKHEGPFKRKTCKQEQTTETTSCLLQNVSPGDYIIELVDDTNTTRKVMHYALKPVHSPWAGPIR
Protocol: (§1) The binding ELISA for crude or purified VH was similar to the serum ELISA and phage ELISA, previously described, mostly differing in the final detection steps. Briefly, antigen was immobilised on maxisorb plates (Nunc 443404) by adding 50 ul volumes at 0.1-1 ug/ml in PBS and incubating at 4° C. overnight. Following coating, the antigen solution was aspirated and the plates were washed using PBS (prepared from PBS tablets, Oxoid cat no. BR0014G) supplemented with 0.05% Tween® 20 (sigma P1379), followed by washes with PBS without added Tween®. To block non-specific protein interactions, a solution of 3% skimmed milk powder (Marvel) in PBS was added to the wells and the plate was incubated for at least one hour at room temperature. Dilutions of periplasmic extract or purified VH in 3% Marvel/PBS were prepared in polypropylene tubes or plates and incubated for at least one hour at room temperature prior to transfer to the blocked ELISA plate where a further incubation of at least one hour took place. Unbound protein was then washed away using repetitive washes with PBS/Tween® followed by PBS. A solution of HRP-conjugated anti-His Ab (Miltenyi Biotec, 130-092-785), prepared at 1:1000 dilution in PBS/3% Marvel was then added to each well and a further incubation at room temperature for at least one hour took place. Unbound detection antibody was removed by repeated washing using PBS/Tween® and PBS. The ELISA was then developed using TMB substrate (Sigma cat. no. T0440) and the reaction was stopped after 10 minutes by the addition of 0.5M H₂SO₄ solution (Sigma cat. no. 320501). Absorbances were determined by reading at 450 nm.

IL-17RB = biological target: T2, IL-17RB (UniProt Q9NRM6 18-289, limits assumed); experiment: as above
T2 sequence (looked up): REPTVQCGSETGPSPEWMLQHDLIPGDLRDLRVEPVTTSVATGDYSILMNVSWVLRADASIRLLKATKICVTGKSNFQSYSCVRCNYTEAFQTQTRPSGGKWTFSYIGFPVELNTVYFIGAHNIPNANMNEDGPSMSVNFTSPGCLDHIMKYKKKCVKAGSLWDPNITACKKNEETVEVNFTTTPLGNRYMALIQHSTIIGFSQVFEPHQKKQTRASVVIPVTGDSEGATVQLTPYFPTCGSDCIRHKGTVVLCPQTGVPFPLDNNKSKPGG
Protocol: as §1

[1] = biological target: T3, recombinant human IL-17RA Fc fusion protein (R&D Systems 177-IR-100) (human, UniProt Q96F46 33-320); experiment: BIAcore T200 single-cycle kinetics, IL-17RA-Fc captured on protein G chip, VH as analyte
T3 construct: Bought protein; not shown: Fc domain of human IgG1
T3 sequence: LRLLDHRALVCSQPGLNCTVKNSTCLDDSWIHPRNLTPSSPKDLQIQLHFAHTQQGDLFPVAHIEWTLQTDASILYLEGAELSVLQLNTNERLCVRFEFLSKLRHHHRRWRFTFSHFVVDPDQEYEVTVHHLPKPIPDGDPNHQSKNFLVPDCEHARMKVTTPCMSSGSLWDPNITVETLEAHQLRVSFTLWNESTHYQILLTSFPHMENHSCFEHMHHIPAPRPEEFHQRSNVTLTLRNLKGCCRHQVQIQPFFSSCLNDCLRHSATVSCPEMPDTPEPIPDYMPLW
Protocol: Binding kinetics of anti-IL-17RA VH antibodies were measured on a BIAcore® T200 instrument. For IL-17RA, first a protein G chip was prepared by diluting protein G to 20 ug/ml in acetate buffer, pH 4 (BIAcore®, cat# BR-100-49) and then coupled 1200 RU to a CM5 Series S chip using amine coupling chemistry. This surface was then used to capture IL-17RA Fc fusion protein from solution: IL-17RA at 10 ug/ml in HBS injected for 10 seconds at 30 ul/min flow rate would capture approximately 100-150 RU of IL-17RA onto the protein G surface.
Binding kinetics of anti-IL-17RA VH antibodies were determined by single-cycle kinetics. VH antibodies were prepared in dilution series (typically 1:3 dilution series starting with 100 nM VH at the highest concentration), and then injected over the antigen coated surfaces and also a blank surface, starting with the lowest concentration of VH and then working progressively up to the highest concentration. VH binding kinetics were then determined from the (blank subtracted) sensorgram traces using 1:1 binding models and BIAevaluation software.

[2] = biological target: T4, human IL-17RA on HT1080 cells (human, UniProt Q96F46 33-866); experiment: cell-based or functional assay
T4 sequence: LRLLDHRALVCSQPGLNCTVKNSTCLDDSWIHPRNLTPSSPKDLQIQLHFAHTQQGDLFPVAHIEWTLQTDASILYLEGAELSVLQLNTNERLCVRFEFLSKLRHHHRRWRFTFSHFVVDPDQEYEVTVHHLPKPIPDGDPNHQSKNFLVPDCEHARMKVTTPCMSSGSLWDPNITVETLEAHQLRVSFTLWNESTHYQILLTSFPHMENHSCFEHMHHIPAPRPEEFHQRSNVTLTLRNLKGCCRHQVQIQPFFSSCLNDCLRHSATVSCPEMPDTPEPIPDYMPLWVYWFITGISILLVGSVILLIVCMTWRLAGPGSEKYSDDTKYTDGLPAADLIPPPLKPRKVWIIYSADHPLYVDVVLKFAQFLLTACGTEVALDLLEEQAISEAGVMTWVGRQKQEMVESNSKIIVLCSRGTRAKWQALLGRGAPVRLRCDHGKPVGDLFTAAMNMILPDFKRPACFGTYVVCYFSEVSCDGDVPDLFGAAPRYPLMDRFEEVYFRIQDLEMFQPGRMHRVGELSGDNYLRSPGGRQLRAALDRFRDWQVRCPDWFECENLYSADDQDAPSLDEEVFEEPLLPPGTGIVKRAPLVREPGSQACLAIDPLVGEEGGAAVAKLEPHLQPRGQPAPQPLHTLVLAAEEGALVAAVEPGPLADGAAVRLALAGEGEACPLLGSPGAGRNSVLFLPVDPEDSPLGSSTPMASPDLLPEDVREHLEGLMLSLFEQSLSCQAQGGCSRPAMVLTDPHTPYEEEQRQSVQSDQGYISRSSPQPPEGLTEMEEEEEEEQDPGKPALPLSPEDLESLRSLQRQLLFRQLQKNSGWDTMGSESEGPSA

B1: VH clone 2.1 (VHH)
VHH: QVQLVQSGAEVKKPGASVKVSCKASGYPFTSYDINWVRQATGQSLEWMGWMNPNSGDTVYAQKFQGRVTMTRNTSISTAYMELSSLRSEDTAVYFCARGRRDDWKNNYWGQGTLVTVSS
notes: Human VH single domain antibody, no light chain; Parent clone of family 2; also called VH 2.1
IL-17RD
  binding result: no binding
IL-17RB
  binding result: no binding
[1]
  Kd: 7 nM
  koff: 0.00263 s⁻¹
  kon: 368000 M⁻¹ s⁻¹
[2]
  Cell assay IC50: 280 nM
